Results from paper PMC11548879.

Tests used:
[1] = target: IL-33 (mouse) (mouse (endogenous in BALB/c mice and CMT-64 cells)) (UniProt Q8BVZ5)
[2] = test system: HpARI1 (Heligmosomoides polygyrus bakeri); test: EMSA; details: pH 7.5, 30 min, room temperature

Sequence of UniProt Q8BVZ5 (Q8BVZ5 whole entry): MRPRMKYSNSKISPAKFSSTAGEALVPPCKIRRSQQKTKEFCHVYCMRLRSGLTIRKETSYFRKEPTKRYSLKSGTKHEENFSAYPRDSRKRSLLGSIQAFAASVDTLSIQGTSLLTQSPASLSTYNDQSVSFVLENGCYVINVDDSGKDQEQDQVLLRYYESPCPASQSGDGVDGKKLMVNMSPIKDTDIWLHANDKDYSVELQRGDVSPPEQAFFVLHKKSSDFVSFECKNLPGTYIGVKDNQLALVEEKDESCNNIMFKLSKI

Substance | IC50 of suppression of IL-5 production from bone marrow cells (IL-2, IL-7, freeze-thawed CMT-64 supernatants; IL-33-mediated ILC2 activation) [1] [ng/mL] | EC50 of amplification of IL-5 production from bone marrow cells (IL-2, IL-7, freeze-thawed CMT-64 supernatants; IL-33-mediated ILC2 activation) [1] [ng/mL] | further results
HpARI3:2 fusion protein (CCP1 domain of HpARI3 fused to the CCP2+3 domains of HpARI2) | 1.1 | – | –
AACTTTGCCATTGTGGAAGG / CCTTCCACAATGCCAAAGTT [IR700 EMSA oligonucleotide probe] | – | – | binding signal [2]: 50 % DNA bound
HpARI2 (natural protein) | 1.9 | – | –
HpARI3 (natural protein) | – | 1.2 | –
HpARI2:3 fusion protein (CCP1 domain of HpARI2 fused to the CCP2+3 domains of HpARI3) | – | 21.5 | –
